Positions of bridges follow the written chain, without caps; N, C: chain ends. Chains are numbered I, II in the order given. No end group written: not given here.
T1: ψPDK peptide (ALSTER), non-TAT conjugated
T1 sequence: ALSTER

B1: ψPDK-Cs-sC-TAT (ψPDK linked to TAT47-57 by a disulfide bond) (peptide)
peptide: ALSTERC-NH2
chain: YGRKKRRQRRRC-NH2
modifications: disulfide I:7-II:12; N-terminus assumed
SMILES: CC(C)C[C@H](NC(=O)[C@H](C)N)C(=O)N[C@@H](CO)C(=O)N[C@H](C(=O)N[C@@H](CCC(=O)O)C(=O)N[C@@H](CCCNC(=N)N)C(=O)N[C@@H](CSSC[C@H](NC(=O)[C@H](CCCNC(=N)N)NC(=O)[C@H](CCCNC(=N)N)NC(=O)[C@H](CCCNC(=N)N)NC(=O)[C@H](CCC(N)=O)NC(=O)[C@H](CCCNC(=N)N)NC(=O)[C@H](CCCNC(=N)N)NC(=O)[C@H](CCCCN)NC(=O)[C@H](CCCCN)NC(=O)[C@H](CCCNC(=N)N)NC(=O)CNC(=O)[C@@H](N)Cc1ccc(O)cc1)C(N)=O)C(N)=O)[C@@H](C)O

Assays:
[1] = target: rat δPKC (endogenous, in perfused rat hearts) (rat) (UniProt P09215); assay: cell-based or functional assay
[2] = tested on: ψPDK-Cs-sC-TAT (ψPDK linked to TAT47-57 by a disulfide bond)
[3] = tested on: T1, ψPDK peptide (ALSTER), non-TAT conjugated
[4] = target: rat δPKC (endogenous, in perfused rat hearts) (rat), P09215; assay: cell-based or functional assay
Sequence of rat δPKC (endogenous, in perfused rat hearts) (rat), P09215 (P09215 whole entry, stated change not applied, the tested form may be a part): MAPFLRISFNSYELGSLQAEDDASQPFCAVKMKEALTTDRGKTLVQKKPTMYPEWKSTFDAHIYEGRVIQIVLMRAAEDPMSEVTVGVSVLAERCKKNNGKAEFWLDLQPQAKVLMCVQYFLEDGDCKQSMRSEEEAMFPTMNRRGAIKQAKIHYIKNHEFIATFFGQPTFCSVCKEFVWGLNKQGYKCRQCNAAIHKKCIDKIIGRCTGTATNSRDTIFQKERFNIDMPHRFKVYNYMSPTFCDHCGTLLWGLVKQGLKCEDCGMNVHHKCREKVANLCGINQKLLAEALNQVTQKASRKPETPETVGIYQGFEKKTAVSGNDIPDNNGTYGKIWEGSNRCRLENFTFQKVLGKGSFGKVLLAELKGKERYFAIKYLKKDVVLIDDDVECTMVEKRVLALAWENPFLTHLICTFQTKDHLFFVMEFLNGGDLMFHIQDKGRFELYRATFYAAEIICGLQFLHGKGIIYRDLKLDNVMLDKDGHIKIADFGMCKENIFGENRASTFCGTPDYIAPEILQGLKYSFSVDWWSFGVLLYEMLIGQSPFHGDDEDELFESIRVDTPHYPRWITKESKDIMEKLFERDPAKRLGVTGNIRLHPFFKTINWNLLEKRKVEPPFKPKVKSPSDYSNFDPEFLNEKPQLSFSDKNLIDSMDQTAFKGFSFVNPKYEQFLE

Sequence of rat δPKC (endogenous, in perfused rat hearts) (rat) (P09215 whole entry, stated change not applied, the tested form may be a part): as above

Molecule	CPK (u/L) [1] [u/L]	p-JNK/total JNK [1]	further results
p199 (ALS(p)T(p)ER), TAT-conjugated (peptide)	842	0.6	–
p197 (ALST(p)ER), TAT-conjugated (peptide)	803	0.7	–
p196 (ALSTEA), TAT-conjugated (peptide)	926	0.9	–
p198 (ALS(p)TER), TAT-conjugated (peptide)	1170	0.9	–
rat δPKC (endogenous, in perfused rat hearts)	–	–	I/R-induced MARCKS phosphorylation in hearts [2]: an increase in I/R-induced MARCKS phosphorylation was observed in the presence of ψPDK, as compared with control peptide; phosphorylation of PDK2 and of the E1 subunit of PDH after I/R (2-D IEF) [2]: the phosphorylation of those two enzymes (shown by a shift to acidic pH by 2-D IEF analysis) did not occur in the presence of either ψPDK or in the presence of δV1-1
p193 (ALATER), TAT-conjugated (peptide)	1160	0.7	–
mouse δPKC (endogenous, in fibroblasts from wild-type mice)	–	–	MARCKS phosphorylation in wild-type fibroblasts [2]: increased MARCKS phosphorylation relative to the control peptide
p194 (ALSAER), TAT-conjugated (peptide)	886	0.6	–
p195 (ALSTAR), TAT-conjugated (peptide)	913	0.7	–
human recombinant δPKC (Invitrogen)	–	–	in vitro phosphorylation of Drp1 by δPKC [3]: ψPDK did not affect Drp1 phosphorylation; δPKC phosphorylation of PDK (in vitro kinase assay) [3]: ψPDK inhibited δPKC phosphorylation of PDK by ˜30%
p192 (AASTER), TAT-conjugated (peptide)	1270	0.7	–
B1	–	–	CPK (u/L) [4]: 335 u/L; p-JNK/total JNK [4]: 0.4; δPKC association with the mitochondria after I/R [4]: 2 fold

Reference: US20160130302A1
